Experimental data published in publication PMC4230594 (Molecular Biology of the Cell, 2014).

Target: T1, HA-Rlf (mouse, UniProt Q61193 1-778)
T1 sequence (looked up): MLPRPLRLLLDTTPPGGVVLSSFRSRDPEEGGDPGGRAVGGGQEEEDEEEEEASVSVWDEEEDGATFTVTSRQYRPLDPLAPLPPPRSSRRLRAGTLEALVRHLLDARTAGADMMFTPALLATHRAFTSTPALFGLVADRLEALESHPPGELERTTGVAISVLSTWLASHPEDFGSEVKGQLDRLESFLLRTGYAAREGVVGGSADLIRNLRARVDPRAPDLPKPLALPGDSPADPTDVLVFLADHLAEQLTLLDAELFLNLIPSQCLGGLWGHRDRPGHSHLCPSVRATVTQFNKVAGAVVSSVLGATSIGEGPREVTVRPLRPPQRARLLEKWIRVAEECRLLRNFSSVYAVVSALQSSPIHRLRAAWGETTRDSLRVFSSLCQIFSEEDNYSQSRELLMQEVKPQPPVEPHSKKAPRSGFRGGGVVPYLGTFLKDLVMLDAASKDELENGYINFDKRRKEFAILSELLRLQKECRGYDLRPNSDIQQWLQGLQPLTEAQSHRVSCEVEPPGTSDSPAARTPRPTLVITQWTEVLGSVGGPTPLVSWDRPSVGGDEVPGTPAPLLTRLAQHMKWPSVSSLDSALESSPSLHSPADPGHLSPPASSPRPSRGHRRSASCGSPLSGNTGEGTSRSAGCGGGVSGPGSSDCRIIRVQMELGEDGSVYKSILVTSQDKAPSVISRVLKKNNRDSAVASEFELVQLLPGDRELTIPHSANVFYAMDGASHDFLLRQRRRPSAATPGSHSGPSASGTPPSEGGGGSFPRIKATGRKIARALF
Assay: co-IP

B1: Myc-Rab10 (QL) (natural protein, UniProt P61026 1-200, looked up)
chain: MAKKTYDLLFKLLLIGDSGVGKTCVLFRFSDDAFNTTFISTIGIDFKIKTVELQGKKIKLQIWDTAGLERFHTITTSYYRGAMGIMLVYDITNGKSFENISKWLRNIDEHANEDVERMLLGNKCDMDDKRVVPKGKGEQIAREHGIRFFETSAKANINIEKAFLTLAEDILRKTPVKEPNSENVDISSGGGVTGWKSKCC
B1 was tested, and the “fold binding against wild-type Rab10” value was 2 fold.
